Test results: US20150344570A1 (published 2015)

T1: FcγRIIb extracellular domain with C-terminal His tag (human, UniProt P31994 43-217)
T1 construct: extracellular domain; also called FcgRIIb; 2b; not shown: His tag attached to the C terminus
T1 sequence (looked up): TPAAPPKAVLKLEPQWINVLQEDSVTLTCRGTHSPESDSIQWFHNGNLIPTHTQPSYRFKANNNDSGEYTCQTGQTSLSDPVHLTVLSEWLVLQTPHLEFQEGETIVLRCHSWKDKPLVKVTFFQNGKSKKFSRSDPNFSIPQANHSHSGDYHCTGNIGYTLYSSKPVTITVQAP


How the values were obtained:
[1] = molecular target: T1, FcγRIIb extracellular domain with …; assay: SPR (Biacore), antibody captured on antigen peptide chip, FcγR as analyte; relative binding
Protocol: (§1) The heterodimerized antibodies He Abs in which one of the H chains was introduced with an alteration were assayed for their binding activities to each activating FcγR and inhibitory FcγR according to the method described in Example 4. […] The activating FcγRs in FIGS. 26, 27, 28, and 29 are FcγRIa, FcγRIIa (R), FcγRIIa (H), and FcγRIIIa, respectively.
(§2) Analysis of interaction between objective antibody and the FcγR was carried out using Biacore T100 (GE Healthcare). HBS-EP+ (GE Healthcare) was used as the running buffer, and the measurement temperature was set to 25° C. Chips produced by immobilizing the antigen peptide by the amine coupling method to a Series S Sencor Chip CM5 (GE Healthcare), or alternatively, chips produced by allowing preliminarily biotinylated antigen peptides to interact with and immobilize onto a Series S Sensor Chip SA (certified) (GE Healthcare) were used. Antibodies of interest were captured onto an antigen peptide-immobilized chip, and allowed to interact to each FcγR diluted with running buffer. To regenerate and repeatedly use the chip, the antibodies captured on the chip were washed off by reacting 10 mM glycine-HCl, pH 1.5.

[2] = molecular target: T2, FcγRIIIa extracellular domain with C-terminal His tag (human, UniProt P08637 17-208); assay: as above
T2 construct: extracellular domain; also called FcgRIIIa; 3a; not shown: His tag attached to the C terminus
Protocol: as §1, §2

T2 sequence (P08637 17-208): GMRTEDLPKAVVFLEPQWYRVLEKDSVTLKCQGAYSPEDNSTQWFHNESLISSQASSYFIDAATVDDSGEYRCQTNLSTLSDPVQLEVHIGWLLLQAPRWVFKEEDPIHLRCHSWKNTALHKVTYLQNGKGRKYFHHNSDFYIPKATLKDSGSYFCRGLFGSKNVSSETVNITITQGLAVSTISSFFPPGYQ

| Binder | He/Con_2b [1] | He/Con_3a [2] |
| --- | --- | --- |
| GpH7-A5/GpH7-B3 variant P331_03V/GpL16-k0 (He Ab) (antibody, human IgG1, kappa, Heterodimerized antibody with the alteration in one H chain only) heavy 1: not shown heavy 2: not shown light: DIVMTQSPLSLPVTPGEPASISCQASESLVHSNRNTYLHWYLQKPGQSPQLLIYKVSNRFSGVPDRFSGSGSGTDFTLKISRVEAEDVGVYYCSQNTHVPPTFGQGTKVEIERTVAAPSVFIFPPSDEQLKSGTASVVCLLNNFYPREAKVQWKVDNALQSGNSQESVTEQDSKDSTYSLSSTLTLSKADYEKHKVYACEVTHQGLSSPVTKSFNRGEC | 119 % of GpH7-A5/GpH7-B3/GpL16-k0 (=100) | 73.2 % of GpH7-A5/GpH7-B3/GpL16-k0 (=100) |
| GpH7-A5/GpH7-B3 variant L328_16H/GpL16-k0 (He Ab) (antibody, human IgG1, kappa, Heterodimerized antibody with the alteration in one H chain only) heavy 1: not shown heavy 2: not shown light: DIVMTQSPLSLPVTPGEPASISCQASESLVHSNRNTYLHWYLQKPGQSPQLLIYKVSNRFSGVPDRFSGSGSGTDFTLKISRVEAEDVGVYYCSQNTHVPPTFGQGTKVEIERTVAAPSVFIFPPSDEQLKSGTASVVCLLNNFYPREAKVQWKVDNALQSGNSQESVTEQDSKDSTYSLSSTLTLSKADYEKHKVYACEVTHQGLSSPVTKSFNRGEC | 80.6 % of GpH7-A5/GpH7-B3/GpL16-k0 (=100) | 54.3 % of GpH7-A5/GpH7-B3/GpL16-k0 (=100) |
| GpH7-A5/GpH7-B3 variant L328_14T/GpL16-k0 (He Ab) (antibody, human IgG1, kappa, Heterodimerized antibody with the alteration in one H chain only) heavy 1: not shown heavy 2: not shown light: DIVMTQSPLSLPVTPGEPASISCQASESLVHSNRNTYLHWYLQKPGQSPQLLIYKVSNRFSGVPDRFSGSGSGTDFTLKISRVEAEDVGVYYCSQNTHVPPTFGQGTKVEIERTVAAPSVFIFPPSDEQLKSGTASVVCLLNNFYPREAKVQWKVDNALQSGNSQESVTEQDSKDSTYSLSSTLTLSKADYEKHKVYACEVTHQGLSSPVTKSFNRGEC | 141 % of GpH7-A5/GpH7-B3/GpL16-k0 (=100) | 75.3 % of GpH7-A5/GpH7-B3/GpL16-k0 (=100) |
| GpH7-A5/GpH7-B3 variant P329_20W/GpL16-k0 (He Ab) (antibody, human IgG1, kappa, Heterodimerized antibody with the alteration in one H chain only) heavy 1: not shown heavy 2: not shown light: DIVMTQSPLSLPVTPGEPASISCQASESLVHSNRNTYLHWYLQKPGQSPQLLIYKVSNRFSGVPDRFSGSGSGTDFTLKISRVEAEDVGVYYCSQNTHVPPTFGQGTKVEIERTVAAPSVFIFPPSDEQLKSGTASVVCLLNNFYPREAKVQWKVDNALQSGNSQESVTEQDSKDSTYSLSSTLTLSKADYEKHKVYACEVTHQGLSSPVTKSFNRGEC | 45.1 % of GpH7-A5/GpH7-B3/GpL16-k0 (=100) | 31.7 % of GpH7-A5/GpH7-B3/GpL16-k0 (=100) |
| GpH7-A5/GpH7-B3 variant L328_18N/GpL16-k0 (He Ab) (antibody, human IgG1, kappa, Heterodimerized antibody with the alteration in one H chain only) heavy 1: not shown heavy 2: not shown light: DIVMTQSPLSLPVTPGEPASISCQASESLVHSNRNTYLHWYLQKPGQSPQLLIYKVSNRFSGVPDRFSGSGSGTDFTLKISRVEAEDVGVYYCSQNTHVPPTFGQGTKVEIERTVAAPSVFIFPPSDEQLKSGTASVVCLLNNFYPREAKVQWKVDNALQSGNSQESVTEQDSKDSTYSLSSTLTLSKADYEKHKVYACEVTHQGLSSPVTKSFNRGEC | 80.8 % of GpH7-A5/GpH7-B3/GpL16-k0 (=100) | 49.7 % of GpH7-A5/GpH7-B3/GpL16-k0 (=100) |
| GpH7-A5/GpH7-B3 variant L328_15Y/GpL16-k0 (He Ab) (antibody, human IgG1, kappa, Heterodimerized antibody with the alteration in one H chain only) heavy 1: not shown heavy 2: not shown light: DIVMTQSPLSLPVTPGEPASISCQASESLVHSNRNTYLHWYLQKPGQSPQLLIYKVSNRFSGVPDRFSGSGSGTDFTLKISRVEAEDVGVYYCSQNTHVPPTFGQGTKVEIERTVAAPSVFIFPPSDEQLKSGTASVVCLLNNFYPREAKVQWKVDNALQSGNSQESVTEQDSKDSTYSLSSTLTLSKADYEKHKVYACEVTHQGLSSPVTKSFNRGEC | 193 % of GpH7-A5/GpH7-B3/GpL16-k0 (=100) | 68.3 % of GpH7-A5/GpH7-B3/GpL16-k0 (=100) |
| GpH7-A5/GpH7-B3 variant L328_06M/GpL16-k0 (He Ab) (antibody, human IgG1, kappa, Heterodimerized antibody with the alteration in one H chain only) heavy 1: not shown heavy 2: not shown light: DIVMTQSPLSLPVTPGEPASISCQASESLVHSNRNTYLHWYLQKPGQSPQLLIYKVSNRFSGVPDRFSGSGSGTDFTLKISRVEAEDVGVYYCSQNTHVPPTFGQGTKVEIERTVAAPSVFIFPPSDEQLKSGTASVVCLLNNFYPREAKVQWKVDNALQSGNSQESVTEQDSKDSTYSLSSTLTLSKADYEKHKVYACEVTHQGLSSPVTKSFNRGEC | 142 % of GpH7-A5/GpH7-B3/GpL16-k0 (=100) | 78.6 % of GpH7-A5/GpH7-B3/GpL16-k0 (=100) |
| GpH7-A5/GpH7-B3 variant I332_11K/GpL16-k0 (He Ab) (antibody, human IgG1, kappa, Heterodimerized antibody with the alteration in one H chain only) heavy 1: not shown heavy 2: not shown light: DIVMTQSPLSLPVTPGEPASISCQASESLVHSNRNTYLHWYLQKPGQSPQLLIYKVSNRFSGVPDRFSGSGSGTDFTLKISRVEAEDVGVYYCSQNTHVPPTFGQGTKVEIERTVAAPSVFIFPPSDEQLKSGTASVVCLLNNFYPREAKVQWKVDNALQSGNSQESVTEQDSKDSTYSLSSTLTLSKADYEKHKVYACEVTHQGLSSPVTKSFNRGEC | 70.9 % of GpH7-A5/GpH7-B3/GpL16-k0 (=100) | 45.1 % of GpH7-A5/GpH7-B3/GpL16-k0 (=100) |
| GpH7-A5/GpH7-B3 variant L328_10E/GpL16-k0 (He Ab) (antibody, human IgG1, kappa, Heterodimerized antibody with the alteration in one H chain only) heavy 1: not shown heavy 2: not shown light: DIVMTQSPLSLPVTPGEPASISCQASESLVHSNRNTYLHWYLQKPGQSPQLLIYKVSNRFSGVPDRFSGSGSGTDFTLKISRVEAEDVGVYYCSQNTHVPPTFGQGTKVEIERTVAAPSVFIFPPSDEQLKSGTASVVCLLNNFYPREAKVQWKVDNALQSGNSQESVTEQDSKDSTYSLSSTLTLSKADYEKHKVYACEVTHQGLSSPVTKSFNRGEC | 172 % of GpH7-A5/GpH7-B3/GpL16-k0 (=100) | 53.4 % of GpH7-A5/GpH7-B3/GpL16-k0 (=100) |

Second part, the binder after the results:

| He/Con_2b [1] | He/Con_3a [2] | Binder |
| --- | --- | --- |
| 110 % of GpH7-A5/GpH7-B3/GpL16-k0 (=100) | 77.3 % of GpH7-A5/GpH7-B3/GpL16-k0 (=100) | GpH7-A5/GpH7-B3 variant P331_04F/GpL16-k0 (He Ab) (antibody, human IgG1, kappa, Heterodimerized antibody with the alteration in one H chain only) heavy 1: not shown heavy 2: not shown light: DIVMTQSPLSLPVTPGEPASISCQASESLVHSNRNTYLHWYLQKPGQSPQLLIYKVSNRFSGVPDRFSGSGSGTDFTLKISRVEAEDVGVYYCSQNTHVPPTFGQGTKVEIERTVAAPSVFIFPPSDEQLKSGTASVVCLLNNFYPREAKVQWKVDNALQSGNSQESVTEQDSKDSTYSLSSTLTLSKADYEKHKVYACEVTHQGLSSPVTKSFNRGEC |
| 102 % of GpH7-A5/GpH7-B3/GpL16-k0 (=100) | 74.8 % of GpH7-A5/GpH7-B3/GpL16-k0 (=100) | GpH7-A5/GpH7-B3 variant P331_06M/GpL16-k0 (He Ab) (antibody, human IgG1, kappa, Heterodimerized antibody with the alteration in one H chain only) heavy 1: not shown heavy 2: not shown light: DIVMTQSPLSLPVTPGEPASISCQASESLVHSNRNTYLHWYLQKPGQSPQLLIYKVSNRFSGVPDRFSGSGSGTDFTLKISRVEAEDVGVYYCSQNTHVPPTFGQGTKVEIERTVAAPSVFIFPPSDEQLKSGTASVVCLLNNFYPREAKVQWKVDNALQSGNSQESVTEQDSKDSTYSLSSTLTLSKADYEKHKVYACEVTHQGLSSPVTKSFNRGEC |
| 99.8 % of GpH7-A5/GpH7-B3/GpL16-k0 (=100) | 74.1 % of GpH7-A5/GpH7-B3/GpL16-k0 (=100) | GpH7-A5/GpH7-B3 variant P331_14T/GpL16-k0 (He Ab) (antibody, human IgG1, kappa, Heterodimerized antibody with the alteration in one H chain only) heavy 1: not shown heavy 2: not shown light: DIVMTQSPLSLPVTPGEPASISCQASESLVHSNRNTYLHWYLQKPGQSPQLLIYKVSNRFSGVPDRFSGSGSGTDFTLKISRVEAEDVGVYYCSQNTHVPPTFGQGTKVEIERTVAAPSVFIFPPSDEQLKSGTASVVCLLNNFYPREAKVQWKVDNALQSGNSQESVTEQDSKDSTYSLSSTLTLSKADYEKHKVYACEVTHQGLSSPVTKSFNRGEC |
| 95.7 % of GpH7-A5/GpH7-B3/GpL16-k0 (=100) | 72.1 % of GpH7-A5/GpH7-B3/GpL16-k0 (=100) | GpH7-A5/GpH7-B3 variant P331_08L/GpL16-k0 (He Ab) (antibody, human IgG1, kappa, Heterodimerized antibody with the alteration in one H chain only) heavy 1: not shown heavy 2: not shown light: DIVMTQSPLSLPVTPGEPASISCQASESLVHSNRNTYLHWYLQKPGQSPQLLIYKVSNRFSGVPDRFSGSGSGTDFTLKISRVEAEDVGVYYCSQNTHVPPTFGQGTKVEIERTVAAPSVFIFPPSDEQLKSGTASVVCLLNNFYPREAKVQWKVDNALQSGNSQESVTEQDSKDSTYSLSSTLTLSKADYEKHKVYACEVTHQGLSSPVTKSFNRGEC |
| 84.7 % of GpH7-A5/GpH7-B3/GpL16-k0 (=100) | 67.5 % of GpH7-A5/GpH7-B3/GpL16-k0 (=100) | GpH7-A5/GpH7-B3 variant P331_11K/GpL16-k0 (He Ab) (antibody, human IgG1, kappa, Heterodimerized antibody with the alteration in one H chain only) heavy 1: not shown heavy 2: not shown light: DIVMTQSPLSLPVTPGEPASISCQASESLVHSNRNTYLHWYLQKPGQSPQLLIYKVSNRFSGVPDRFSGSGSGTDFTLKISRVEAEDVGVYYCSQNTHVPPTFGQGTKVEIERTVAAPSVFIFPPSDEQLKSGTASVVCLLNNFYPREAKVQWKVDNALQSGNSQESVTEQDSKDSTYSLSSTLTLSKADYEKHKVYACEVTHQGLSSPVTKSFNRGEC |
| 116 % of GpH7-A5/GpH7-B3/GpL16-k0 (=100) | 75.1 % of GpH7-A5/GpH7-B3/GpL16-k0 (=100) | GpH7-A5/GpH7-B3 variant P331_10E/GpL16-k0 (He Ab) (antibody, human IgG1, kappa, Heterodimerized antibody with the alteration in one H chain only) heavy 1: not shown heavy 2: not shown light: DIVMTQSPLSLPVTPGEPASISCQASESLVHSNRNTYLHWYLQKPGQSPQLLIYKVSNRFSGVPDRFSGSGSGTDFTLKISRVEAEDVGVYYCSQNTHVPPTFGQGTKVEIERTVAAPSVFIFPPSDEQLKSGTASVVCLLNNFYPREAKVQWKVDNALQSGNSQESVTEQDSKDSTYSLSSTLTLSKADYEKHKVYACEVTHQGLSSPVTKSFNRGEC |
